Three sequences from the supplement of paper PMC6379048 can be followed below.

Common to all, as to assay: Kd (EC50 corrected by depletion factor)
The target of data set [1] is ELAVL2 (UniProt Q12926). The method in brief: (§1)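 Kd was calculated as EC50, taken from a four-parameter log-logistic fit, multiplied by a protein-dependent depletion factor. The assay used HEK293-FT lysate (2.5 mg protein/well) pre-incubated for 1 h at 4°C with free RNA oligos (0 nM to 30 μM), then incubated for 30 min at 4°C with the matching oligos bound through a 5′-amino-C6 linker to NHS-Sepharose beads. Bound proteins were measured by label-free LC-MS/MS and normalised to the control.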
Chain of ELAVL2 (Q12926 whole entry): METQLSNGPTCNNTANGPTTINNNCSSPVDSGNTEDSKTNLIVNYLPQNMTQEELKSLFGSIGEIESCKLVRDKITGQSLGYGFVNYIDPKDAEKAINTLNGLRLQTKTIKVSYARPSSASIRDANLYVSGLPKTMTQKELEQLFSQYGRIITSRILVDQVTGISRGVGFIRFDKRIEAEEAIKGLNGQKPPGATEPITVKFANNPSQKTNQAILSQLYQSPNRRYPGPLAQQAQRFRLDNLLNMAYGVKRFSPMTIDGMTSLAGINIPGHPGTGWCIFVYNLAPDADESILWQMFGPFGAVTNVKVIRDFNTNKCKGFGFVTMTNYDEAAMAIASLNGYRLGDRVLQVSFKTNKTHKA

Data set [2] deals with T1, FUBP3 (UniProt Q96I24).
T1 sequence: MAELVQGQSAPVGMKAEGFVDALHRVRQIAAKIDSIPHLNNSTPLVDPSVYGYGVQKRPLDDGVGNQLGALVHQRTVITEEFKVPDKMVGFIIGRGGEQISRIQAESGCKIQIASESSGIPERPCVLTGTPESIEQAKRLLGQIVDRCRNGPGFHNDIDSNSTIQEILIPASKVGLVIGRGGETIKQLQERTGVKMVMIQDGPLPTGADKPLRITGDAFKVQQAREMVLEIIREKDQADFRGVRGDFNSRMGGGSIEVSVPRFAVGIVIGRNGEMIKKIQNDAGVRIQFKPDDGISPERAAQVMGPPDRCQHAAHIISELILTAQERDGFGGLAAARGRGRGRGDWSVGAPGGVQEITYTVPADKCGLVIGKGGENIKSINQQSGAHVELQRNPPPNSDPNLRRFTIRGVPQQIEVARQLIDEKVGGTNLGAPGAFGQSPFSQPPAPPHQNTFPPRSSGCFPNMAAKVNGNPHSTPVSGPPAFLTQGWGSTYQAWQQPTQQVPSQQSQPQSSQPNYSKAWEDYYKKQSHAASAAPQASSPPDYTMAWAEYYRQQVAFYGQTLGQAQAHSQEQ
A digest of the protocol:
as §1

Data set [3] deals with T2, MEX3B (UniProt Q6ZN04).
T2 sequence: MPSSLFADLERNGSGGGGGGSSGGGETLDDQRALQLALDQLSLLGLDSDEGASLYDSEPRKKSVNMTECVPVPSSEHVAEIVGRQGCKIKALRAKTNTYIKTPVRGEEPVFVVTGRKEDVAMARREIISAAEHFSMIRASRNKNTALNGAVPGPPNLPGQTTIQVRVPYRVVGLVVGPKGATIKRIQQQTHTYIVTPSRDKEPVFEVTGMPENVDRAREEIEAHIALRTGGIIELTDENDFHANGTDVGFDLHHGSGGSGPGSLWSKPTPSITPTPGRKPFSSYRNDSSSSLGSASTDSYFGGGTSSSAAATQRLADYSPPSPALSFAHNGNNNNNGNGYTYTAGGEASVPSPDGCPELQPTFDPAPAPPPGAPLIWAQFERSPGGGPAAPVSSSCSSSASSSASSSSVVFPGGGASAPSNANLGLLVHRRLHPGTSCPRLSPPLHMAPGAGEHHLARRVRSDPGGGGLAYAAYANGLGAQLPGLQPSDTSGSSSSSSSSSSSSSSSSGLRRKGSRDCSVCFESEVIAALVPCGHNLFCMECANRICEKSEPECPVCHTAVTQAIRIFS
The method in brief:
as §1

Data set [4] addresses T3, XAB2 (UniProt Q9HCS7).
T3 sequence: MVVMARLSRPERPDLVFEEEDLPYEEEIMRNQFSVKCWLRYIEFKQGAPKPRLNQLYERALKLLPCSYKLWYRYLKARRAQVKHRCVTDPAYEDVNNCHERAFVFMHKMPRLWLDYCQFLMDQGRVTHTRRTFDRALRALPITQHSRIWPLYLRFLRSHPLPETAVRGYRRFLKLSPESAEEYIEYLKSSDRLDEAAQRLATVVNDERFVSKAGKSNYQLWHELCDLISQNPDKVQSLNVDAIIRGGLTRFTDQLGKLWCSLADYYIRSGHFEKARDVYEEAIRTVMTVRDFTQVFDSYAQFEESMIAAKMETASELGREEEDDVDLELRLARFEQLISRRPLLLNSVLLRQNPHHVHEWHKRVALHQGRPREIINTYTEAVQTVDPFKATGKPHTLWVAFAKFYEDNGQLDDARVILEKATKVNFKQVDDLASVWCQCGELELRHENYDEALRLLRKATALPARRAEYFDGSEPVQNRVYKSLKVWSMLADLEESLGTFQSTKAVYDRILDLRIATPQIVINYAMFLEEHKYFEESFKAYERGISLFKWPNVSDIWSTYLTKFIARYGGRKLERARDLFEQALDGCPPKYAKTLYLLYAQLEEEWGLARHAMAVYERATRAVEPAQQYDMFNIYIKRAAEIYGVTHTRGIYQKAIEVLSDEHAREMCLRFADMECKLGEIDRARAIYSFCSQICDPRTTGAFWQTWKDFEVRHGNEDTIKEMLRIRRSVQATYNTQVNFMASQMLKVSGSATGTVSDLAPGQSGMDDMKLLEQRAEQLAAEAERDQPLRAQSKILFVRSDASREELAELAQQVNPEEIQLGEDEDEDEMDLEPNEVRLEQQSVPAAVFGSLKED
A digest of the protocol:
as §1

The target of data set [5] is NCL (UniProt P19338). A digest of the protocol:
as §1

pKd: −log10 of the molar value.

Chain of NCL (P19338 whole entry): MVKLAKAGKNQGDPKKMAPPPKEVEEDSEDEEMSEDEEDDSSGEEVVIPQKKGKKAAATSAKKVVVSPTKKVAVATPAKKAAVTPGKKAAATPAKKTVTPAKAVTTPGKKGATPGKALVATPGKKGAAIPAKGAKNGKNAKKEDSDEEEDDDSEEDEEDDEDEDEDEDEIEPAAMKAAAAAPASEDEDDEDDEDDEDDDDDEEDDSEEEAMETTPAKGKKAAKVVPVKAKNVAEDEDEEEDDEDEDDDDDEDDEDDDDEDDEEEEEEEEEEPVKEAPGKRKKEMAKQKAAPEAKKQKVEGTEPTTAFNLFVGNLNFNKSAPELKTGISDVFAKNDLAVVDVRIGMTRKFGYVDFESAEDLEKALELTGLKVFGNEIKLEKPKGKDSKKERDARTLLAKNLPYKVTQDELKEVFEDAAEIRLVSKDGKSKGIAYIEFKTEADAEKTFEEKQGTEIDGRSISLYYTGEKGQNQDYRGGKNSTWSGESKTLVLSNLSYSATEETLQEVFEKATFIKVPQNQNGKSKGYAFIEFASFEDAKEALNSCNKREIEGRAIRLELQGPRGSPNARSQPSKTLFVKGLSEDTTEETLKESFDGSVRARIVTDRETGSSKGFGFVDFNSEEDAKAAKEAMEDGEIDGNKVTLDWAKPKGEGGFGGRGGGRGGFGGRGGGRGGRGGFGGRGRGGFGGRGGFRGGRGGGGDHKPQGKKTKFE

One may read the pKd as the negative decadic logarithm of the Kd, by convention in mol/L. The low end stands for a large Kd, the high end for a small Kd. In the case of AAUAAA, the pKd is 5.05 in data set [1], 6.61 in data set [2], 6.48 in data set [3] and 6.49 in data set [4].

On to CUGUCCU, for which the negative logarithm of the Kd (pKd) in data set [5] is 7.06.

For the sequence UAUUUAU, the pKd in data set [1] is 5.43; in data set [2], 6.62; in data set [3] it was 6.66; in data set [5], 5.75; in data set [4], 6.54.
